Results published in PMC6542653.
Changes are numbered by the printed parent chain.

How the values were obtained:
[1] = target: T1, CytR DNA-binding domain double mutant (DM) (UniProt P0ACN7 1-66, A29V;A48M); assay: fluorescence anisotropy
T1 sequence: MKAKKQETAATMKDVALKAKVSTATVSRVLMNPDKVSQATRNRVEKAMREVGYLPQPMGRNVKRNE

[2] = target: T2, CytR DNA-binding domain wild type (UniProt P0ACN7 1-66); assay: fluorescence anisotropy
T2 sequence: T1 sequence with V29A, M48A

B1: udp half-site (udpO) (dsDNA)
DNA 1: ATTTATGCAACGCA
DNA 2: TGCGTTGCATAAAT
binding result [1]: binds
binding result [2]: binds
